Reference: the supplement of paper PMC10126150
± gives the standard deviation of the averaged measurements.

Tested on: ATP
Assay: switch fluorescence ratio, 500 uM ATP over buffer (Cy3 cluster intensity, sum of 5 cycles each) (fold (ratio)); higher = stronger signal-on switching upon ATP binding; sequences stand for … in TCGTCGGCAGCGTCAGATGTGTATAAGAGACAGTTTTTTTTTTTTTTTTTTTTTTTTT…TC
Conditions: aptamer strand: ATP DNA aptamer (quencher-CACCTGGGGGAGTATTGCGGAGGAAGG + anchor), 100 nM annealed; ATP concentration: 500 uM
How it was run: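 Imaging in selection buffer was followed by imaging after 15 min with 500 uM ATP at 22 °C, for Cy3-labelled switching-strand clusters annealed to 100 nM quencher-labelled ATP aptamer on a modified Illumina MiSeq flow-cell. Five of these buffer/ATP cycles ran, separated by NaOH stripping and re-annealing. The fluorescence ratio per cluster is summed target-cycle over summed buffer-cycle Cy3 intensity, averaged per switch-domain sequence; clusters outside 100-1000 RFU were removed.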
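Also: ATP exposure 15 min at 22 °C before imaging.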

Row | Sequence | switch fluorescence ratio
1 | CAGGTCTTGC | 1 ± 0.015
2 | GATAAACAAT | 1.19 ± 0.28
3 | TTTTTCATGG | 1 ± 0.031
4 | TGCGGTGTAG | 1.01 ± 0.011
5 | CTAAGGTGTT | 1.325 ± 0.011
6 | AAATGGTCT | 1.016 ± 0.01
7 | TTGTTTCAGT | 0.997 ± 0.028
8 | CCTTTGGTTT | 0.982 ± 0.013
9 | TTTCATCCCC | 1.07 ± 0.034
10 | TTTTAAAAAG | 1 ± 0.012
11 | AGCCGGGTAG | 1.053 ± 0.0086
12 | CGATGTGAGA | 1.04 ± 0.022
13 | TTCCTGCTTG | 1.36 ± 0.6
14 | TGATTTACAA | 1.05 ± 0.015
15 | TTGGGAATCA | 0.988 ± 0.026
16 | AGAATTATTG | 0.9936 ± 0.0079
17 | GGGATGGGAT | 0.978 ± 0.037
18 | TGAGGTTTTC | 1.02 ± 0.048
19 | TTTGTAGCTG | 1.4 ± 0.046
20 | AGCTGTACTA | 1.21 ± 0.029
21 | GTTATTAGCT | 0.992 ± 0.013
22 | TTTGCCTGTA | 0.992 ± 0.032
23 | ACTGGCTGAG | 1.01 ± 0.024
24 | TAGCGGGATT | 1.02 ± 0.033
25 | TTAGGGTTTT | 1.04 ± 0.067

Row | Sequence | switch fluorescence ratio
26 | TCTTTTGGTG | 1.03 ± 0.019
27 | TCGGGAGTAT | 1.04 ± 0.03
28 | GACCCTTACC | 1.38 ± 0.014
29 | TTTATGGCTA | 1.03 ± 0.011
30 | GGTAGGGGTC | 1.01 ± 0.056
31 | GGTCGTCTTG | 0.996 ± 0.04
32 | TCTAAGGTTA | 1 ± 0.02
33 | TTATCAAAGC | 0.992 ± 0.033
34 | TTGGCAGTCG | 0.998 ± 0.02
35 | GTTGAAGTTG | 0.968 ± 0.02
36 | ATATATTTTG | 0.972 ± 0.03
37 | CGGCTGCGTG | 0.998 ± 0.0073
38 | TTTTATAGAT | 0.977 ± 0.015
39 | GGACAAGGGT | 1.02 ± 0.037
40 | GGAATTACCG | 1.031 ± 0.0025
41 | ATAAGTGCTG | 0.991 ± 0.017
42 | TTTGGGTGTC | 0.979 ± 0.014
43 | GGCGGCGAGG | 1.02 ± 0.011
44 | TTTCCGTTAT | 2.41 ± 1.9
45 | TTTGCGAGGT | 0.972 ± 0.026
46 | AGGGAACCGC | 1.016 ± 0.0062
47 | TCAAGGGGGA | 1 ± 0.035
48 | ATAATCTGTG | 0.986 ± 0.0023
49 | TCAGTACTTT | 0.998 ± 0.043
50 | AATCGTACGT | 0.959 ± 0.04

Row | Sequence | switch fluorescence ratio
51 | CGTTGTATTA | 0.996 ± 0.051
52 | TAATGATTGA | 0.985 ± 0.0078
53 | TGGTAAAGTA | 0.991 ± 0.02
54 | ATCATTTTTA | 1.01 ± 0.02
55 | TGAGGGTTTT | 0.997 ± 0.02
56 | GGCCTGGATT | 1.05 ± 0.031
57 | TTTATTGGTT | 1.07 ± 0.1
58 | AGTAATGGTT | 1.01 ± 0.014
59 | GGGATTCGCA | 0.99 ± 0.053
60 | TAGTGATGGT | 0.973 ± 0.029
61 | CTCTAGCCTC | 1.176 ± 0.0012
62 | CTATACCGTT | 1.003 ± 0.0048
63 | CCACGAGATA | 1.115 ± 0.0033
64 | AATATGCTTT | 1.006 ± 0.0048
65 | AAAGTTGGAT | 0.977 ± 0.012
66 | GGTATGTAGG | 0.978 ± 0.012
67 | TATCTATATT | 1 ± 0.016
68 | ACCCTGGCAA | 1.36 ± 0.41
69 | TTGTTTATGT | 0.9993 ± 0.0082
70 | GCGTTGAGGA | 1.04 ± 0.08
71 | TCTAATACGG | 1.04 ± 0.02
72 | GATGTCAGGG | 1.05 ± 0.021
73 | ATGGTGTGAG | 1.02 ± 0.016
74 | TGGCGCATTC | 1.3 ± 0.15
75 | TTCGATGCGG | 1.02 ± 0.036

Row | Sequence | switch fluorescence ratio
76 | GCTCCATTTG | 0.983 ± 0.021
77 | CATATAGTTC | 0.984 ± 0.03
78 | CTTTGAGACG | 0.978 ± 0.068
79 | GGTACATGGG | 0.975 ± 0.021
80 | TTTTGAAAGA | 1.01 ± 0.062
81 | AACTATATGG | 1.046 ± 0.0081
82 | CAGGGGGCTT | 1.03 ± 0.054
83 | ATATAAGGGA | 1 ± 0.019
84 | AATAGTTGGG | 1.03 ± 0.015
85 | ACTTGGGGCC | 0.971 ± 0.012
86 | GGTGTCTGGT | 1.001 ± 0.0061
87 | AATAAGAGAG | 1.001 ± 0.0078
88 | TAATACTTCG | 1.03 ± 0.012
89 | TCGGTCGTGC | 1.03 ± 0.034
90 | GGATGTGTTT | 0.999 ± 0.029
91 | TGGCCTGCTG | 0.9919 ± 0.0026
92 | CGCGAATTTG | 1.02 ± 0.021
93 | ATTCCTAGAT | 1.002 ± 0.0091
94 | AATTCAGCCA | 0.9878 ± 0.0057
95 | TACCTGGGGG | 1.02 ± 0.03
96 | GCTGCTTAGC | 1.02 ± 0.018
97 | ATCTGTATGT | 0.968 ± 0.017
98 | GATAAGAGTG | 1.02 ± 0.052
99 | TTTACTTTTC | 1.49 ± 0.75
100 | TGTTTTTAGC | 1.0151 ± 0.00055

Row | Sequence | switch fluorescence ratio
101 | AAGATACGTT | 1.03 ± 0.011
102 | GTTTTTGGCG | 0.94 ± 0.16
103 | TATAGAGGTT | 0.992 ± 0.015
104 | TTTGGTCAAG | 1.01 ± 0.016
105 | ATACGATTGG | 0.9674 ± 0.0044
106 | AACTCTAAAA | 1.05 ± 0.051
107 | TTGTAAGGAT | 1.02 ± 0.013
108 | GCGTCCCGTG | 0.985 ± 0.11
109 | AACGAGACCA | 1.07 ± 0.052
110 | TAGTGATACG | 0.986 ± 0.05
111 | TCGAAGGGCT | 1.016 ± 0.01
112 | TACTACTTCT | 1.02 ± 0.023
113 | GTGTGGTATA | 0.982 ± 0.012
114 | CTTCGGCCTT | 0.976 ± 0.02
115 | TTAGGGAGTG | 1 ± 0.027
116 | AATATTGAAG | 1 ± 0.018
117 | TGAGAAATTA | 1.05 ± 0.014
118 | CAAAGGCAGG | 1.004 ± 0.0065
119 | AAATGTTTGC | 1.01 ± 0.018
120 | TTCAGAAAGA | 0.998 ± 0.023
121 | GACGGGGAAG | 1.08 ± 0.069
122 | AGTAGAGGGA | 0.995 ± 0.019
123 | GAGGGGGTTT | 0.99 ± 0.018
124 | TGGCAGGGGG | 0.945 ± 0.029
125 | TGGTAGAGAG | 0.9883 ± 0.0075

Row | Sequence | switch fluorescence ratio
126 | ACTACGTCGA | 2.01 ± 0.21
127 | GGCTGGGGCA | 0.979 ± 0.021
128 | TTATGGCTAT | 0.991 ± 0.031
129 | GTTTTACACG | 0.954 ± 0.031
130 | ATGGGCGTTG | 0.9658 ± 0.0037
131 | GTTTCGGGGT | 1.004 ± 0.0055
132 | TTGTAATTTA | 1.01 ± 0.019
133 | GAATTAGCTT | 0.983 ± 0.023
134 | TTAGTGGGGT | 1.01 ± 0.028
135 | GGGGGGCGCT | 0.992 ± 0.018
136 | TTTACAATGG | 1.058 ± 0.0062
137 | TGGGGACCCA | 0.991 ± 0.018
138 | CTGTTGAGGG | 1 ± 0.027
139 | GTTTATGGTG | 0.999 ± 0.025
140 | GCGGGGAGCG | 1.001 ± 0.0031
141 | ATCGGTGAAG | 0.9925 ± 0.0058
142 | TGGACGGCGC | 1.04 ± 0.016
143 | TTTGACATGG | 0.955 ± 0.029
144 | TTTTAGTACC | 1.018 ± 0.0081
145 | TATAGACAGG | 0.989 ± 0.057
146 | GATTGTGGAG | 1.01 ± 0.018
147 | GCGTCCGCTG | 1.22 ± 0.039
148 | TGTATACTTT | 1.018 ± 0.0081
149 | ATTGGATGGG | 0.997 ± 0.057
150 | AAGGGCGTAT | 1.01 ± 0.02

Row | Sequence | switch fluorescence ratio
151 | TAGGGACAGG | 0.99 ± 0.038
152 | TAGGTTGAGT | 0.996 ± 0.061
153 | AAAGTTGCGG | 1.016 ± 0.0045
154 | GTATTTTCGC | 1.02 ± 0.017
155 | CAATGGTCCA | 1.03 ± 0.024
156 | AAGGACGTGG | 0.98 ± 0.029
157 | TACAGGCTCG | 1.007 ± 0.01
158 | ATTAAATAG | 0.9803 ± 0.0081
159 | GGAGCTGGGA | 1.0097 ± 0.00033
160 | GGGGACGAGC | 0.999 ± 0.027
161 | CATTTCGTAA | 1.18 ± 0.02
162 | TTTTACGGGC | 1.018 ± 0.0039
163 | TTCTGATGGA | 0.978 ± 0.036
164 | GAATTCTCGT | 0.969 ± 0.024
165 | CCGAAATTTA | 1.19 ± 0.02
166 | TCATGAGCTT | 1.039 ± 0.0015
167 | GTTCAAAAGG | 0.919 ± 0.028
168 | ATTAGGGTAA | 1.02 ± 0.026
169 | CCGAATTTT | 1.02 ± 0.037
170 | TTTTTCAGCT | 1.02 ± 0.012
171 | GTTAGTACTG | 0.96042 ± 0.00063
172 | TATAAGTGTT | 1.002 ± 0.0067
173 | TTAACGGTAA | 1.09 ± 0.042
174 | TTTTCTATAT | 1.01 ± 0.065
175 | GTATGCGGAG | 0.996 ± 0.02

Row | Sequence | switch fluorescence ratio
176 | ATAAAGTGTG | 1.01 ± 0.02
177 | GGATGCAGCT | 1.12 ± 0.1
178 | TGCGATTTTT | 1.01 ± 0.042
179 | TTGGCGGGTG | 1.04 ± 0.041
180 | GAATGGGGCA | 0.978 ± 0.032
181 | GGTGAGCTAG | 0.9866 ± 0.0034
182 | AACATAGTAG | 0.96446 ± 0.0004
183 | CTTGGGGAGC | 0.982 ± 0.07
184 | ACAACATCCT | 1.08 ± 0.044
185 | GGCCGAGGGT | 1.03 ± 0.025
186 | CGGTGGACTA | 1.008 ± 0.01
187 | AAACTAAAAA | 1 ± 0.033
188 | TAGGTGCATA | 1.03 ± 0.043
189 | AACTCCCTTT | 1.067 ± 0.0086
190 | AGATGCCAGG | 1.1 ± 0.031
191 | ATTTTGTTAG | 0.998 ± 0.011
192 | TTACGCAATT | 4.42 ± 0.59
193 | GATTTTTATG | 0.977 ± 0.011
194 | TCCAAATTAC | 2.08 ± 0.064
195 | GCTTAAACGG | 1.02 ± 0.073
196 | TGGTATTTTT | 0.991 ± 0.029
197 | TCGAGATTAT | 1.01 ± 0.027
198 | GGTGCAGGAG | 0.999 ± 0.035
199 | GGAGTATCCT | 0.981 ± 0.016
200 | GACGGGCAGG | 1.027 ± 0.0056
